For orientation: stoichiometry N means a count of units in the complex or per binding partner.

Data on one molecule can be found in paper PMC8494748.

In this test the target is T1, MS2 bacteriophage coat protein (bacteriophage MS2), P03612.
T1 chain: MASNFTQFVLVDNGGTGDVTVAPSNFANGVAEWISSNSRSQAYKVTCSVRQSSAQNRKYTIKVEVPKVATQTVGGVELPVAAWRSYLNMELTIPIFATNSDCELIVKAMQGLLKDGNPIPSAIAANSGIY
In words: SDS-PAGE with Western blot; 12.5% acrylamide gel, polyclonal anti-MS2 coat protein antibody; BL21(DE3) bacterial lysate; bands of 14 and 28 kDa. Conditions: remark: other sources report otherwise.

B1: MS2 bacteriophage coat protein, P03612 1-130 (natural protein)
chain: T1 chain
Molecule B1 gave a stoichiometry N of 2.
